{"source": "patent US20120148607A1", "target": "c-Met on human cells (HPAF, A549, MKN-45) (human) (UniProt P08581)", "sequence (P08581 25-1390)": "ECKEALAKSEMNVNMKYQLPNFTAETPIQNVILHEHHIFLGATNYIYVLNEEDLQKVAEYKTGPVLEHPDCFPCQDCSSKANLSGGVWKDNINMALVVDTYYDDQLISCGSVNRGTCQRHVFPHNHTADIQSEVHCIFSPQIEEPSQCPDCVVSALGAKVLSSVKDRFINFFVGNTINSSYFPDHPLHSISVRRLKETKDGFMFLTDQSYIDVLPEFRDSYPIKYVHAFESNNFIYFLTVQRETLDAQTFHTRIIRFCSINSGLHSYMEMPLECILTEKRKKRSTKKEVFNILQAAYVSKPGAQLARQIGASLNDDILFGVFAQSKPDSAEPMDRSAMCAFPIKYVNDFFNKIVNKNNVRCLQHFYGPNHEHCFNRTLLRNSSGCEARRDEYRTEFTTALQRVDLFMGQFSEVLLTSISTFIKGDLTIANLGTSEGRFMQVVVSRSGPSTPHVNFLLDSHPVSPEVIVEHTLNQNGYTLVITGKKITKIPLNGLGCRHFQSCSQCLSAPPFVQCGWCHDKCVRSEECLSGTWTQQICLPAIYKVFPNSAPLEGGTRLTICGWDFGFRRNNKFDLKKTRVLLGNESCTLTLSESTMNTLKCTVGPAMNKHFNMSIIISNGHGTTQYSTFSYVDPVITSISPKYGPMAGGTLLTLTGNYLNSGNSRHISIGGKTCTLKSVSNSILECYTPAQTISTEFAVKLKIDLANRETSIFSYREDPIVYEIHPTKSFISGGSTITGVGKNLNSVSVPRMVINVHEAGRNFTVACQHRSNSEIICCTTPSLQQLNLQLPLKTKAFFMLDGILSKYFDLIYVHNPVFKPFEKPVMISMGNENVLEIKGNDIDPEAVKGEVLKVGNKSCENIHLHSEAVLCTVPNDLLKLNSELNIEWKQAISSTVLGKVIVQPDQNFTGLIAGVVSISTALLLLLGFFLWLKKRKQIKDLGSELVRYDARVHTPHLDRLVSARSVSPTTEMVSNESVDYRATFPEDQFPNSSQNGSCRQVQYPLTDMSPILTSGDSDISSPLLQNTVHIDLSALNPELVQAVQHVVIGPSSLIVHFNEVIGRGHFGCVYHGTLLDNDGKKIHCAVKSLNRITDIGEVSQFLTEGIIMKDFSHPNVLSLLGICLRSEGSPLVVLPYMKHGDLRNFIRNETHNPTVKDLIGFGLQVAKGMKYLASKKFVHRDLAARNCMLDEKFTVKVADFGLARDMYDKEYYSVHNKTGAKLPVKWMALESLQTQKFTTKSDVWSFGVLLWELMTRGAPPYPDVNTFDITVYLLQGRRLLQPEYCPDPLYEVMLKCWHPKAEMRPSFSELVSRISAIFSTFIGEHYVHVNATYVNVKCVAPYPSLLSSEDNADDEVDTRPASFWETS", "assay": "cell-based or functional assay"}
{"substance": "murine 5D5 antibody", "values": [{"measurement": "down-regulation of total c-Met on the surface of MKN-45 cells (flow cytometry)", "value": "50 to 60", "unit": "%"}]}
